Results from PMC8664259.

T1: TAF7 (WT) (UniProt Q15545 1-349)
T1 sequence: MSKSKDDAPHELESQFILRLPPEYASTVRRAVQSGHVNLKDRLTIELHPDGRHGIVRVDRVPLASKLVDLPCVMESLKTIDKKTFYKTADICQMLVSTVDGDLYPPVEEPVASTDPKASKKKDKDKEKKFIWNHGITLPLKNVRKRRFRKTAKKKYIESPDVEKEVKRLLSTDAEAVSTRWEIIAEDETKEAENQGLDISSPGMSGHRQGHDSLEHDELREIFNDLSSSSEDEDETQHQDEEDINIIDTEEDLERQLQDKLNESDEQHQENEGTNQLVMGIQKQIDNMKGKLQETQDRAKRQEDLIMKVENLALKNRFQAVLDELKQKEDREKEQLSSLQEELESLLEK


Molecular target: T1, TAF7 (WT)
Experiment: EMSA

Binder	binding result
GGCAGAAAGGAGCAUUGGAGCUCUCUGCC (structured_RNA) [TARmut RNA]	no binding
GGCAGAUCUGAGCCUGGGAGCUCUCUGCC (structured_RNA) [HIV-1 TAR RNA]	binds
